Results as given in patent US20220177587A1, “METHODS AND USES OF VARIANT CD80 FUSION PROTEINS AND RELATED CONSTRUCTS” (Alpine Immune Sciences, Inc., priority 2018, published 2022).

Assays:
PD-L1/PD-1 interaction = biological target: T1, PD-L1/PD-1 interaction (Homo sapiens, UniProt Q9NZQ7); test: PD-L1/PD-1 binding and blocking on CHO/PD-L1 cells; settings: fluorescently conjugated PD-1-Fc; FIG. 7
T1 construct: expressed in transfected cells
Experimental: Binding of selected immunomodulatory fusion proteins to cells expressing PD-L1 was assessed to test for blocking of the PD-L1/PD-1 interaction. […] Samples were acquired on a flow cytometer and MFIs of the fluorescently labeled PD-1 were determined by Flowjo software analysis.
The multivalent variant CD80 IgSF domain fusion proteins were assessed to test for blocking of the PD-L1/PD-1 and CTLA-4/CD80 interaction performed substantially as described in Example 15. CHO/OKT3/PD-L1 and CHO/CTLA-4 cells were counted and plated at 100,000 cells/well and then incubated with fluorescently conjugated PD-1-Fc and CD80-Fc. Exemplary multivalent variant CD80 IgSF domain fusion proteins were incubated with the cells for 30 minutes. […] Cells were washed and incubated with 100 nM fluorescently conjugated PD-1-Fc and CD80-Fc competitor for 30 minutes. Cells were then washed and samples were acquired on a flow cytometer and MFIs of the fluorescently labeled molecules were determined.

huPD-L1/B16-F10 cells = test: huPD-L1/B16-F10 melanoma model; format: in vivo, mouse
Experimental: This variant is an exemplary variant identified to have increased binding affinity for PD-L1 compared to wild-type CD80 and activity to block PD-L1 and CTLA-4 and to provide PD-L1-dependent T cell activation via CD28 costimulatory receptor. To test the anti-tumor activity of the exemplary variant, it was evaluated alone or in combination with an anti-mouse PD-1 monoclonal antibody (clone RMP1-14, rat IgG2a) in mice bearing human PD-L1 (huPD-L1)-expressing B16-F10 tumors, which is a syngeneic mouse melanoma model. This model is an aggressive and, in many cases, a treatment-resistant model.
Subconfluent cells (˜80% confluent) were harvested on the day of implantation (study day 0). The cells were washed twice and brought to a final concentration of 5×10^6 cells/mL in DPBS. Female C57BL/6NJ mice (Jackson Labs, USA) were implanted subcutaneously with approximately 0.5×10^6 huPD-L1/B16-F10 cells. […] The B16-F10 cells at time of implant were evaluated to confirm expression of huPD-L1 by flow cytometry. […]
Tumors were measured with electronic calipers two-dimensionally twice weekly, beginning on day 6 post-tumor cell implant. Tumor volume was calculated as length×(width×2)×0.5, with the length being the longer of the two measurements. […] Calculations for the mean and median were determined on the last day in which at least 70% of mice were alive on study (day 18 post-tumor cell implant).

Mouse PK model = format: in vivo; settings: mouse PK model estimate
Text: A PK model was designed as a two compartment model with intercompartmental distribution (Q) between the first compartment (Central Compartment, V1) and the second compartment (Peripheral Compartment, V2). To capture intraperitoneal (IP) or subcutaneous (SC) injection routes, a third compartment (Depot Compartment) was included with a first-order rate constant (Ka) linking the third compartment uni-directionally to the first compartment. The model also included a constant F to account for loss in the amount of drug available to diffuse from the third compartment (Depot Compartment) to the first compartment (Central Compartment, V1) due to IP or SC injection. The total amount of available drug in the third compartment (Depot Compartment) is described as F×Dose. For intravenous injections (IV), the third compartment (Depot Compartment) was omitted.
Drug clearance (CL) from the first compartment (Central Compartment, V1) was modeled differently for each species. In the mouse model, a time-dependent increase in clearance due to the formation of anti-drug antibodies was accounted for as follows:
For monkeys, linear clearance from the first compartment (Central Compartment, V1) was assumed.
PK was also compared in tumor-bearing versus non-tumor-bearing mice. […] All treatments were administered IP. PK was determined in tumor-bearing mice in all groups and compared to the predicted PK in non-tumor bearing mice.

huPD-L1/MC38 cells = test: huPD-L1 MC38 tumor model, combination with anti-CTLA-4; format: in vivo, mouse
Experimental: Eight-week old female C57/BL6NJ mice (The Jackson Laboratories, Sacramento, Calif.) were implanted subcutaneously with 1.5×10^6 huPD-L1/MC38 cells (described in Example 27. On days 8, 11 or 14 post-tumor cell implant mice, the tested molecules were delivered through intraperitoneal (IP) injection as set forth in Table E40. Tumor volume was determined substantially as described in Example 27.

[1] = tested on: human PD-L1-transduced MC38 tumor; test: huPD-L1 MC38 tumor model, combination with anti-PD-L1 or anti-CD28 blocking antibodies; format: in vivo, mouse
Experimental: Anti-tumor activity was evaluated by serial tumor measurements.

CD28 = CD28 (Homo sapiens, UniProt P10747); test: Jurkat/IL2 + K562/OKT3/PD-L1 reporter assay; format: cell-based; set-up: host or cells: Jurkat cells expressing an IL-2-luciferase reporter; settings: IgV-Fc (inert); various concentrations; FIG. 5

T1 sequence (Q9NZQ7 19-290): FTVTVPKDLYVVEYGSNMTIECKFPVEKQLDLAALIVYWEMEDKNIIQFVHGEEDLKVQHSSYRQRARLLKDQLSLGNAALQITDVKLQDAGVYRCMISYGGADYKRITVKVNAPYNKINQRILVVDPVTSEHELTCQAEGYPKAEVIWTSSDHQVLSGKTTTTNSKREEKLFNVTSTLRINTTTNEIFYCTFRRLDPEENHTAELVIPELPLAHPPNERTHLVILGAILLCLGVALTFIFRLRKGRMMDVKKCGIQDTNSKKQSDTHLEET

H18Y/A26E/E35D/M47L/V68M/A71G/D90G: variant CD80 IgV-Fc (inert), IgV SEQ ID NO:491
blocking of binding of PD-1 to PD-L1 (PD-L1/PD-1 interaction): antagonize or block binding of PD-1 to PD-L1 | tumor growth inhibition (huPD-L1/B16-F10 cells; in combination with anti-PD-1 mAb, day 18): 92% | tumor growth (median tumor volumes) (huPD-L1/B16-F10 cells; in combination with anti-mouse PD-1 mAb, IP days 6, 8, 11): significantly reduced tumor growth | CL (Mouse PK model): 1.34 mL/day | F (Mouse PK model): 99% | Ka (Mouse PK model): 4.53 day⁻¹ | Q (Mouse PK model): 26.5 mL/day | V1 (Mouse PK model): 1.94 mL | V2 (Mouse PK model): 8.88 mL | β (Mouse PK model; time-dependent clearance constant): 0.0685 day⁻¹ | tumor growth over time (huPD-L1/MC38 cells; in combination with anti-CTLA-4): significantly greater reduction in tumor growth over time was observed than with either agent alone | antitumor activity (huPD-L1/MC38 cells; monotherapy): had potent antitumor activity | antitumor activity ([1]; coadministration with anti-CD28 or anti-PD-L1): coadministration with either anti-CD28 or anti-PD-L1 reduced the antitumor activity | antitumor activity ([1]; monotherapy 100 μg IP): demonstrated activity superior to PD-L1 blockade alone | PD-L1 dependent CD28 costimulation (luciferase activity) (CD28): induced PD-L1 dependent CD28 costimulation in a dose-dependent manner
